Measurements taken from article PMC4486061 (Journal of Structural Biology, 2010).
“And” between values parts separate entries of the source, which are not always exact repeats. Equal values may be shown once.

Target: the molecule itself
Experiment: PFO-PAGE

B1: SARS-CoV M protein endodomain, residues 107-221 (M_(107-221)) (domain or fragment)
chain: SMWSFNPETNILLNVPLRGTIVTRPLMESELVIGAVIIRGHLRMAGHSLGRCDIKDLPKEITVATSRTLSYYKLGASQRVGTDSGFAAYNRYRIGNYKLNTDHAGSNDNIALLVQ
stoichiometry N: 2 and 4 and 6
